# Patent US20060286112A1 (published 2006)
# Tests used:
# [1] = biological target: T1, human VLA-1 (alpha 1/beta 1, CD49a/CD29) on IL-2 stimulated human PBMC / T cells (human, UniProt P56199 29-1179; P05556 21-798); test: cell-based or functional assay
# [2] = biological target: T1, human VLA-1 (alpha 1/beta 1, …); test: cell-based or functional assay; remark: listed apart in the source
# [3] = biological target: T1, human VLA-1 (alpha 1/beta 1, …); test: cell-based or functional assay; remark: listed apart in the source
# [4] = biological target: T1, human VLA-1 (alpha 1/beta 1, …); test: cell-based or functional assay; remark: listed apart in the source
# [5] = biological target: T2, human VLA-1 α1 subunit (CD49a), full-length, on transfected CHO cells (human, UniProt P56199 29-1179); test: cell-based or functional assay
# [6] = biological target: T3, mouse VLA-1 on mouse splenocytes (mouse, UniProt Q3V3R4 29-1179; P09055 21-798); test: FACS on mouse splenocytes
# T3 construct: whole, on cells; native protein on primary cells
# [7] = biological target: T2, human VLA-1 α1 subunit (CD49a), …; test: FACS on CHO-α1 cells
# [8] = biological target: T4, human CD49a I domain S162H (human, UniProt P56199 151-364, S162H); test: ELISA on secreted mutant I domain
# T4 construct: domain: I domain; not shown: myc and His tags
# [9] = biological target: T5, human CD49a I domain with residues 91-96 VQRGGR replaced by mouse GRRGGL (human, UniProt P56199 151-364, V91G; Q92R; R96L); test: ELISA on secreted mutant I domain
# T5 construct: domain: I domain; also called V91G, Q92R, R96L; not shown: myc and His tags
# [10] = biological target: T6, human CD49a I domain T204A (human, UniProt P56199 151-364, T204A); test: ELISA on secreted mutant I domain
# T6 construct: domain: I domain; not shown: myc and His tags
# [11] = biological target: T7, human CD49a I domain E66A (human, UniProt P56199 151-364, E66A); test: ELISA on secreted mutant I domain
# T7 construct: domain: I domain; not shown: myc and His tags
# [12] = biological target: T8, human CD49a I domain K142Q (human, UniProt P56199 151-364, K142Q); test: ELISA on secreted mutant I domain
# T8 construct: domain: I domain; text prints KI42Q once; not shown: myc and His tags
# [13] = biological target: T9, human CD49a I domain I11F (human, UniProt P56199 151-364, I11F); test: ELISA on secreted mutant I domain
# T9 construct: domain: I domain; not shown: myc and His tags
# [14] = biological target: T10, human CD49a I domain E48K (human, UniProt P56199 151-364, E48K); test: ELISA on secreted mutant I domain
# T10 construct: domain: I domain; not shown: myc and His tags
# [15] = biological target: T11, human CD49a I domain K88N (human, UniProt P56199 151-364, K88N); test: ELISA on secreted mutant I domain
# T11 construct: domain: I domain; not shown: myc and His tags
# [16] = biological target: T2, human VLA-1 α1 subunit (CD49a), …; test: cell-based or functional assay; remark: listed apart in the source
# [17] = biological target: T1, human VLA-1 (alpha 1/beta 1, …); test: FACS on IL-2 stimulated human PBMC
Binder,"% adhesion of T cells to collagen IV vs no antibody, 0.5 nM mAb, 10 ng/ml PMA [1]","% adhesion of T cells to collagen IV vs no antibody, 5 nM mAb, 10 ng/ml PMA [1]","% adhesion of IL-2 activated T cells to collagen IV vs no antibody, 10 µg/ml, +PMA [2]","% adhesion of IL-2 activated T cells to collagen IV vs no antibody, 10 µg/ml, -PMA [2]","T cell adhesion to immobilized collagen IV, relative estimated IC50 [3]","% adhesion of T cells to collagen IV vs no antibody, 0.5 nM mAb, no PMA [4]","% adhesion of T cells to collagen IV vs no antibody, 5 nM mAb, no PMA [4]","IC50, adhesion of CHO-VLA-1 cells to collagen IV [5]",binding result [6],binding result [7],binding result [8],binding result [9],binding result [10],binding result [11],binding result [12],binding result [13],binding result [14],binding result [15],"relative inhibition at an optimal concentration, CHO-VLA-1 adhesion to collagen IV [16]",binding result [17]
"10.1 (antibody, V domains shown) VH: QVQLQQSGPGLVKPSETLSLTCTVSGASISSYYWSWIRQPAGKGLEWIGRIYASGSTNYNPSLKSRVTMSVDTSKSQFSLNLSSVTAADTAVYYCAREGWERLQDYYYYGLDVWGQGTTVTVSS VL: EIVLTQSPGTLSLSPGERATLSCRASQSVSRNYLAWNQQKPGQAPRLLIYGASSRATGIPDRFSGSGSGTDFTLTISRLEPEDFAVYYCQQYGSSPLTFGGGTKVEIK",96.7%,86.8%,38.4%,40.9%,> 5 nM,101%,76.6%,1 nM,,,,,,,,,,,,
"1.7 (antibody, V domains shown, human IgG2 or IgG4; also called antibody 1.7) VH: QVQLQESGPGLVKPSQTLSLTCTVSGGSISRGNYYWSWIRQHPGKGLEWIGYIFYSGSTYYNPSLKSRVTISVDTSKNQFSLKLSSVTAADTAVYYCARDGYGMDVWGQGTTVTVSS VL: EIVLTQSPGTLSLSPGERATLSCRASQSVSSSYLVWYQQKPGQAPRLLLYDASSRATGIPDRFSGSGSGTDFTLTISRLEPEDFAVYYCQQYGNSPLTFGGGTKVEIK",74.5%,44.1%,33.8%,57%,,36.9%,,,binds,,,,,,,,,,,
"7.38 (antibody, V domains shown, human IgG2 or IgG4) VH: QVQLQESGPGLVKPSETLSLTCTVSGGSFSSYYWSWIRQPAGKGLEWIGRIYTSGSTYYNPSLKSRVTMSVDTSKNQFSLKLNSVTAADTAVYYCAREGYDFWNDYYNYYYGMDVWGQGTTVTVS VL: EIVLTQSPGTLSLSPGERATLSCRASQSVSSRYLAWYQQKPGQAPRLLIYGASSRATGIPDRFSGSGSGTDFTLTISRLEPEDFAVYYCQQYGSAFTFGGGTKVEIK",,,,,,,,,,binds,,,,,,,,,,
"3.9 (antibody, V domains shown, human IgG2 or IgG4) VH: QVQLVESGGGVVQPGRSLRLSCAASGFTFSSYGMHWVRQAPGKGLEWVAVIWYDGSNKYYADSVKGRFTISRDNSKNTLYLQMNSLRAEDTAVYYCARDNGAMVRGVIISYYYGMDVWGQGTTVTVSS VL: SYDLTQPSSVSVSPGQTASIACSGDRLGNKYACWYQQKPGQSPVLVIYKDSKRPSGIPERFSGSNSGNTATLTISGTQAMDEADYYCQAWDSSTVVFGGGTKLTVL",91.9%,99.6%,24.6%,45.8%,> 5 nM,91.5%,68%,0.38 nM,,,binds,binds,binds,binds,binds,binds,no binding,binds,> 80%,
"3.40 (antibody, V domains shown, human IgG2 or IgG4) VH: QVQLVESGGGVVQPGRSLRLSCAASGFTFSTYGMHWVRQAPGKGLEWVAVIWYDGSKKYYADSVKGRFAISRDNSKNTLYLQMNSLRAEDTAVYYCARDHTMVRGVINSYYYGMAVWGQGTTVTVSS VL: SYELTQPPSVSVSPGQTASITCSGDRLGNKYACWYQQKTGQSPVLVIYQDSKRPSGIPERFSGSNSGNTATLTISGTQAMDEADYYCQAWDSSTVVFGGGTKLTVL",,,,,> 5 nM,,,1.3 nM,,,binds,binds,binds,binds,binds,binds,no binding,binds,,
"3.2 (antibody, V domains shown, human IgG2 or IgG4) VH: QVQLVESGGGVVQPGRSLRLSCAASGFTFSSYGIHWVRQAPGKGLEWVAVIWYDGSDIYYADSVKGRFTISRDNSKNTLYLQMNSLRAEDTALYYCARESSGWTFDYWGQGTLVTVSS VL: QSALTQPASVSGSPGQSITISCTGTSSDVGGYNYVSWYQQHPGKAPKLMIYEVSNRPSGISNRFSGSKSGNTASLTISGLQAEDEADYYCSSYTSSSTIIFGGGTKLTVL",,,,,,,,,,,,,,,,,,,,binds
